The values below come from paper PMC10073093, “TGFBI remodels adipose metabolism by regulating the Notch-1 signaling pathway” (Experimental & Molecular Medicine, 2023).

Assay [1] concerns the target T1, Recombinant TGFBI (transforming growth factor-beta-induced protein) (UniProt Q15582 24-683).
T1 construct: Transforming growth factor-beta-induced protein (TGFBI, βig-H3); cDNA inserted into the EcoRV and EcoRI sites of pET-29b; also called βig-H3; keratoepithelin; source: E. coli, IPTG-induced, purified (Ni-NTA column, dialyzed)
T1 sequence (looked up): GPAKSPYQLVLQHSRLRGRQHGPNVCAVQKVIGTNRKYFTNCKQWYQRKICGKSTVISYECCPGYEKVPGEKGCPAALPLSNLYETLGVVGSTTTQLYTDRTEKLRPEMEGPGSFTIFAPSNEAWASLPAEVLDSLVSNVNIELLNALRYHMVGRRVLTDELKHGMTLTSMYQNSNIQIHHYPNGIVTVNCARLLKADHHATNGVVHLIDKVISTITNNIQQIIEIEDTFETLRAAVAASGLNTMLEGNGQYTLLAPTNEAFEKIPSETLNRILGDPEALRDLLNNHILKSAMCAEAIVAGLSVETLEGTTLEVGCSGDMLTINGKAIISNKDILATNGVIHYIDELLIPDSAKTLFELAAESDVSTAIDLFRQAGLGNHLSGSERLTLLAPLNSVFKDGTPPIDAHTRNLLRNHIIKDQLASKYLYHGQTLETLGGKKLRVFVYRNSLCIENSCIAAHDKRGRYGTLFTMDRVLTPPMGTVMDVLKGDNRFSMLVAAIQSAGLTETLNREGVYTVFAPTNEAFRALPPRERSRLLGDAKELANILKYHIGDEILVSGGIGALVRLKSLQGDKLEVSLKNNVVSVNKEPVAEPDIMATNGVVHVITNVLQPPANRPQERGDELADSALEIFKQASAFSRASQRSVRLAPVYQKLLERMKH
The assay can be described thus: ELISA; recombinant Notch-1 (2 g/ml as printed, in PBS) coated on 96-well polystyrene plates at RT overnight; blocked with 1% BSA in PBS; Jagged-1 or TGFBI added at 0 to 2000 ng/ml; biotinylated antibodies, streptavidin-HRP, OD 450 nm; Kd (nM) = ED50 (ng/mL)/molecular weight of binding protein. Conditions: both partners purified.

The target in assay [2] is T2, Recombinant Notch-1 protein (UniProt P46531 19-2555).
T2 chain: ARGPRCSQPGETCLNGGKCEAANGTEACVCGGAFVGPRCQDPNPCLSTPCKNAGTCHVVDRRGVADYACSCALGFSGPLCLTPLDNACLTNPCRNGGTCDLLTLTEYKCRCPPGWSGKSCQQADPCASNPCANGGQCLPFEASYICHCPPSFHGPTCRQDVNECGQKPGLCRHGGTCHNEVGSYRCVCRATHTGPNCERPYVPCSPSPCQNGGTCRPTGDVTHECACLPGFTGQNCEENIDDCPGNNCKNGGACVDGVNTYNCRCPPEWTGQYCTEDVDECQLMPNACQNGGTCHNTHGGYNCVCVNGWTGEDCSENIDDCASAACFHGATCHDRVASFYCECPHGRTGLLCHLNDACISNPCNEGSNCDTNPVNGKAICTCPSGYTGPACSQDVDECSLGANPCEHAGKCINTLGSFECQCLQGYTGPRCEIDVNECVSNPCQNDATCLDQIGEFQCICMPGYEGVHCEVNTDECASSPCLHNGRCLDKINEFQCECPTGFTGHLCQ
The assay can be described thus: ELISA. In general terms: An ELISA detects its analyte on a solid surface through an enzyme-linked reagent.

B1: Recombinant Notch-1 protein (receptor)
chain: T2 chain
modifications: Species, supplier and limits not stated. Human assumed (mouse Q01705 is possible). Limits follow the usual commercial recombinant Notch-1 ectodomain fragment (N-terminal EGF repeats including …)
Broadly, the Kd is the constant that tells how readily two partners part at equilibrium. Take B1: the dissociation constant (Kd) in assay [1] was 3.18 nM.

B2: Recombinant TGFBI (transforming growth factor-beta-induced protein) (natural protein)
chain: T1 sequence (looked up)
modifications: Species, supplier and limits not stated. Human assumed (mouse Q01705 is possible). Limits follow the usual commercial recombinant Notch-1 ectodomain fragment (N-terminal EGF repeats including ligand-binding EGF 11-12), recalled rather than printed; any Fc carrier omitted.
A word on the EC50: it is the concentration needed to bring the measured effect to its halfway point. Consider B2, for which, in assay [2], the concentration giving a half-maximal response (EC50) came to 0.452 µg/mL.
